Eleven molecules from US20220323614A1, “KRAS-SPECIFIC CYCLIC PEPTIDES, COMPOSITIONS, AND METHODS OF USING AND MAKING” (Indi Molecular, Inc., priority 2021, published 2022) can be followed below.

The target in experiment [1] is KRAS (WT) as expressed in BxPC-3 cells (human) (UniProt P01116). The experiment can be described thus: cell-based or functional assay.
The target in experiment [2] is KRAS (G12D) as expressed in G12D-mutant cancer cells (AsPC-1, SW 1990, pancreatic cancer cells) (human) (UniProt P01116). Briefly: cell-based or functional assay.

Primed or numbered codes have the meaning given here. Where no end group is shown, it is not given here. [ ]: non-standard residue; d: D form. The star is where a group is joined. Az2 = aminoazidobutanoic acid, ring closure; dPhe(4-Br) = N[C@H](Cc1ccc(Br)cc1)C(=O)O; 2Nal = N[C@@H](Cc1ccc2ccccc2c1)C(=O)O; Palmitoyl = CCCCCCCCCCCCCCCC(=O)*; Tic = O=C(O)[C@@H]1Cc2ccccc2CN1; Cha = N[C@@H](CC1CCCCC1)C(=O)O; Dab = NCC[C@H](N)C(=O)O; Thz′ = not defined here; Phf = not defined here

B1: Ac-w(Dab)yf-Lys(Pal) (peptide)
peptide: Ac-[dW][Dab][dY][dF]K(Palmitoyl)
modifications: triazole (positions not given here); also: cyclic via triazole, ring-closing residues not given here
B1 gave a pERK WT (BxPC-3 at 4 µM for 12 hours) in experiment [1] of 0.982. The molecule also returned a pERK G12D (AsPC-1 at 4 µM for 12 hours) in experiment [2] of 0.625.

B2: Ac-wk(4-Br-f)f-Lys(Pal) (peptide)
peptide: Ac-[dW][dK][dPhe(4-Br)][dF]K(Palmitoyl)
modifications: triazole (positions not given here); also: cyclic via triazole, ring-closing residues not given here
B2 yielded a pERK WT (BxPC-3 at 4 µM for 12 hours) in experiment [1] of 0.895. In addition, the pERK G12D (AsPC-1 at 4 µM for 12 hours) in experiment [2] worked out at 0.776.

B3: Ac-(Thz)kyf-Lys(Pal) (peptide)
peptide: Ac-[Thz′][dK][dY][dF]K(Palmitoyl)
modifications: triazole (positions not given here); reading uncertain; also: cyclic via triazole, ring-closing residues not given here, printed as Ac-(Thz)kyf-Lys(Pal)
For the molecule B3, the pERK WT (BxPC-3 at 4 µM for 12 hours) in experiment [1] is 0.851. Also, the pERK G12D (AsPC-1 at 4 µM for 12 hours) in experiment [2] worked out at 1.11.

B4: Ac-wky(4-F-f)-Lys(Pal) (peptide)
peptide: Ac-[dW][dK][dY][4‑F‑f]K(Palmitoyl)
modifications: triazole (positions not given here); also: cyclic via triazole, ring-closing residues not given here
Consider B4, for which the pERK WT (BxPC-3 at 4 µM for 12 hours) in experiment [1] amounted to 1.71. Besides, the pERK G12D (AsPC-1 at 4 µM for 12 hours) in experiment [2] was 1.14.

B5: Ac-(Tic)kyf-Lys(Pal) (peptide)
peptide: Ac-[Tic][dK][dY][dF]K(Palmitoyl)
modifications: triazole (positions not given here); also: cyclic via triazole, ring-closing residues not given here
B5 returned a pERK WT (BxPC-3 at 4 µM for 12 hours) in experiment [1] of 0.806. In addition, the pERK G12D (AsPC-1 at 4 µM for 12 hours) in experiment [2] was determined as 0.974.

B6: Ac-wky(Cha)-Lys(Pal) (peptide)
peptide: Ac-[dW][dK][dY][Cha]K(Palmitoyl)
modifications: triazole (positions not given here); also: cyclic via triazole, ring-closing residues not given here
In experiment [1], B6 came in with a pERK WT (BxPC-3 at 4 µM for 12 hours) of 1.27. This molecule had a pERK G12D (AsPC-1 at 4 µM for 12 hours) in experiment [2] of 1.13.

B7: Ac-wky(4-Cl-f)-Lys(Pal) (peptide)
peptide: Ac-[dW][dK][dY][4‑Cl‑f]K(Palmitoyl)
modifications: triazole (positions not given here); also: cyclic via triazole, ring-closing residues not given here
B7 showed a pERK WT (BxPC-3 at 4 µM for 12 hours) in experiment [1] of 1.05. The pERK G12D (AsPC-1 at 4 µM for 12 hours) in experiment [2] turned out to be 0.8.

B8: Ac-wky(Phf)-Lys(Pal) (peptide)
peptide: Ac-[dW][dK][dY][Phf]K(Palmitoyl)
modifications: triazole (positions not given here); reading uncertain; also: cyclic via triazole, ring-closing residues not given here, printed as Ac-wky(Phf)-Lys(Pal)
Take B8: in experiment [1], the pERK WT (BxPC-3 at 4 µM for 12 hours) was 0.757. The molecule also had a pERK G12D (AsPC-1 at 4 µM for 12 hours) in experiment [2] of 1.32.

B9: Ac-wkyf-Az2-Lys(Pal) (peptide)
peptide: Ac-[dW][dK][dY][dF][Az2]K(Palmitoyl)
modifications: triazole (positions not given here); also: cyclic via triazole, other ring-closing residue not given here
Take B9: the pERK WT (BxPC-3 at 4 µM for 12 hours) in experiment [1] is 1.16. The molecule further came in with a pERK G12D (AsPC-1 at 4 µM for 12 hours) in experiment [2] of 0.794.

B10: Ac-wky(2-Nal)-Lys(Pal) (peptide)
peptide: Ac-[dW][dK][dY][2Nal]K(Palmitoyl)
modifications: triazole (positions not given here); also: cyclic via triazole, ring-closing residues not given here
As for B10, the pERK WT (BxPC-3 at 4 µM for 12 hours) in experiment [1] is 0.871. The same molecule showed a pERK G12D (AsPC-1 at 4 µM for 12 hours) in experiment [2] of 0.71.

B11: Ac-wky(4-Br-f)-Lys(Pal) (peptide)
peptide: Ac-[dW][dK][dY][dPhe(4-Br)]K(Palmitoyl)
modifications: triazole (positions not given here); also: cyclic via triazole, ring-closing residues not given here
Take B11: in experiment [1], the pERK WT (BxPC-3 at 4 µM for 12 hours) is 1.09. Besides, in experiment [2], the pERK G12D (AsPC-1 at 4 µM for 12 hours) turned out to be 0.606.
